Source: patent US9718864B2 (HAINAN UNIVERSITY, dated 2017)
No end group written: not given here.

Tests used:
Assay in all cases: cell-based or functional assay
[1] = target: rat NMDA receptor NR1-2b/NR2D (rat, UniProt P35439)
rat α7 nAChR = rat α7 nAChR (rat, UniProt Q05941)
[2] = target: rat NMDA receptor NR1-2b/NR2A (rat, UniProt P35439)

Row | Binder | Half-blocking dose IC50 of NMDA receptor current [1] [µM] | Half-blocking dose IC50 of ACh-gated current (rat α7 nAChR) [µM] | Half-blocking dose IC50 of NMDA receptor current [2] [µM]
1 | TCRSSGRYCRSPYDRRRRYCRRITDACV (not fully specified; ends and bridges not checked) [αO-conotoxin GeXIVA14] | ≥ 10 |  | 
2 | TCRSSGRYCRSPYDRRRRYCRRITDACV (not fully specified; ends and bridges not checked) [αO-conotoxin GeXIVA13] | ≥ 10 | 4.96 | > 10
